Where a chain is given by its changes, count along the chain named. Numbers in names are those of the source.
B1: Sec9c D599C, spin labeled with MTSSL (SN2) (domain or fragment, yeast, UniProt P40357 401-651, looked up)
chain: QRGYKTFEEIQKEEEARQQQEEDEAVDEIKQEIKFTKQSSVASTRNTLKMAQDAERAGMNTLGMLGHQSEQLNNVEGNLDLMKVQNKVADEKVAELKKLNRSILAVHVSNPFNSKRRRREREEQLKNRKIEEKLMREQTSQQLSQSTQRIEGAMNANNNISEVRERYQRKNVLEKAKRYQFENDEEDDEMELEIDRNLCQIQQVSNRLKKMALTTGKELDSQQKRLNNIEESTDDLDINLHMNTNRLAGIR
modifications: MTSSL nitroxide spin label on cysteine 599
B2: Sec9c N606C, spin labeled with MTSSL (SN2) (domain or fragment, yeast, UniProt P40357 401-651, looked up)
chain: B1 chain with C199D, N206C
modifications: MTSSL nitroxide spin label on cysteine 606
B3: Sec9c D620C, spin labeled with MTSSL (SN2) (domain or fragment, yeast, UniProt P40357 401-651, looked up)
chain: B1 chain with C199D, D220C
modifications: MTSSL nitroxide spin label on cysteine 620
B4: Sec9c N627C, spin labeled with MTSSL (SN2) (domain or fragment, yeast, UniProt P40357 401-651, looked up)
chain: B1 chain with C199D, N227C
modifications: MTSSL nitroxide spin label on cysteine 627
B5: Sec9c H641C, spin labeled with MTSSL (SN2) (domain or fragment, yeast, UniProt P40357 401-651, looked up)
chain: B1 chain with C199D, H241C
modifications: MTSSL nitroxide spin label on cysteine 641
B6: Sso1pHT E185C labeled with Cy3 (domain or fragment, yeast, UniProt P32867 185-290, looked up)
chain: CAKTALAEVQARHQELLKLEKSMAELTQLFNDMEELVIEQQENVDVIDKNVEDAQLDVEQGVGHTDKAVKSARKARKNKIRCWLIVFAIIVVVVVVVVVPAVVKTR
modifications: Cy3 maleimide on cysteine 185
B7: full-length Snc2p (amino acids 1-115) P13C labeled with Cy5 (natural protein, yeast, UniProt P33328 1-115, looked up)
chain: MSSSVPYDPYVPCEESNSGANPNSQNKTAALRQEIDDTVGIMRDNINKVAERGERLTSIEDKADNLAISAQGFKRGANRVRKQMWWKDLKMRMCLFLVVIILLVVIIVPIVVHFS
modifications: Cy5 maleimide on cysteine 13

Tests used:
[1] = biological target: T1, Snc2pS (soluble Snc2p, amino acids 1-93), wild type (yeast, UniProt P33328 1-93); experiment: EPR line shape
T1 sequence (looked up): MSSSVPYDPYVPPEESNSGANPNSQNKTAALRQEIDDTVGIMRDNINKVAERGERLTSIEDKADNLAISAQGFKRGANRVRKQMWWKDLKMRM

[2] = biological target: T2, Sso1pHT (amino acids 185-290 of Sso1p lacking the regulatory Habc domain), wild type (yeast, UniProt P32867 185-290); experiment: EPR line shape
T2 sequence (looked up): B6 chain with C1E

[3] = biological target: T3, Sec9c (amino acids 401-651 of Sec9), wild type (yeast, UniProt P40357 401-651); experiment: FRET or BRET
T3 sequence (looked up): B1 chain with C199D

Binder	percent of SN2 in an unstructured conformation (not in the complex) [1] [%]	percent of SN2 in an unstructured conformation (not in the complex) [2] [%]	binding result [3]
B1	~60	~60	
B2	~60	~60	
B3	~60	~60	
B4	~60	~60	
B5	~60	~60	
B6			binds
B7			binds

— paper PMC3733360 (Structure (London, England : 1993), 2008)
